Measurements published in patent US20150299265A1 (Molecular Partners, published 2015).

B1: DARPin #28 (designed binder)
chain: MRGSHHHHHHGSDLGVKLLWAAARGQDDEVRILLAAGADVNAKDFQGITPLHIAATNGHLEIVEVLLKAGADVNAKDITGETPLHHAADSGHLEIVEVLLKAGADVNAQDKAGVTPADLAAAWGHEDIAEVLQKLGGGGSGGGGSRSDLGAKLLVAATSGQDDEVRILLAAGADVNAKDRIGFTPLHRAAFVGHLEIVEVLLKAGADVNAQDDFGHTPADLAASLGHEDIAEVLQKLN
B2: DARPin #46 (designed binder)
chain: MRGSHHHHHHGSDLGKKLLEAARAGQDDEVRILMANGADVNAKDFYGITPLHLAAAYGHLEIVEVLLKHGADVNAHDWNGWTPLHLAAKYGHLEIVEVLLKHGADVNAIDNAGKTPLHLAAAHGHLEIVEVLLKYGADVNAQDKFGKTAFDISIDNGNEDLAEILQKLGGGGSGGGGSRSDLGKKLLEAARAGQDDEVRILMANGADVNATDIHGHTPLHLAAAMGHLEIVEVLLKNGADVNANDWRGFTPLHLAALNGHLEIVEVLLKNGADVNATDTAGNTPLHLAAWFGHLEIVEVLLKNGADVNAQDKFGKTAFDISIDNGNEDLAEILQKLN
B3: DARPin #32 (designed binder)
chain: MRGSHHHHHHGSDLGIKLLFAASRGQDDEVRILLAAGADVNAKDFEGITPLHAAARSGHLEIVEVLLKAGADVNAKDVEGWTPLHYAASYGHLEIVEVLLKAGADVNAQDNHGATPADLAAQWGHEDIAEVLQKLGGGGSGGGGSRSDLGIKLLQAANLGQDDEVRILLATGADVNAKDSIGQTPLHWAARRGHLEIVEVLLKAGADVNAKDEYGVTPLHLAASLGHLEIVEVLLKAGADVNAQDESGETPADLAALHGHEDIAEVLQKLN
B4: DARPin #45 (designed binder)
chain: MRGSHHHHHHGSDLGKKLLEAARAGQDDEVRILMANGADVNAKDFYGITPLHLAAAYGHLEIVEVLLKHGADVNAHDWNGWTPLHLAAKYGHLEIVEVLLKHGADVNAIDNAGKTPLHLAAAHGHLEIVEVLLKYGADVNAQDKFGKTAFDISIDNGNEDLAEILQKLGGGGSGGGGSRSDLGKKLLEAARAGQDDEVRILMANGADVNAKDEYGLTPLYLATAHGHLEIVEVLLKNGADVNAVDAIGFTPLHLAAFIGHLEIAEVLLKHGADVNAQDKFGKTAFDISIGNGNEDLAEILQKLN
B5: DARPin #47 (designed binder)
chain: MRGSHHHHHHGSDLGDKLLQSDLGIKLLFAAAKSQDDEVRILLAAGADVNAKDFQSVTPLHIAAQSGHLEIVEVLLKAGADVNAKDVTGDTPLHLAAQHGHLEIVEVLLKAGADVNAQDERGWTPADLAADWGHEDIAEVLQKLGGGGSGGGGSRSDLGIKLLVAAAQGQDDEVRILLAAGADVNAKDQQGATPLHLAAWKGHLEIVEVLLKAGADVNAKDLSGDTPLHIAAWFGHLEIVEVLLKAGADVNAQDTEGYTPADLAALYGHEDIAEVLQKLN
B6: DARPin #23 (designed binder)
chain: MRGSHHHHHHGSDLGDKLLQSDLGIKLLFAAAKSQDDEVRILLAAGADVNAKDFQSVTPLHIAAQSGHLEIVEVLLKAGADVNAKDVTGDTPLHLAAQHGHLEIVEVLLKAGADVNAQDERGWTPADLAADWGHEDIAEVLQKLGGGGSGGGGSRSDLGAKLLVAATSGQDDEVRILLAAGADVNAKDRIGFTPLHRAAFVGHLEIVEVLLKAGADVNAQDDFGHTPADLAASLGHEDIAEVLQKLN
B7: DARPin #40 (designed binder)
chain: MRGSHHHHHHGSDLGHKLLEAAVAGQDDEVRILLAAGADVNAKDWYGKTPLHFAAGLGHLEIVEVLLKAGADVNAKDEDGQTPLHLAAAYGHLEIVEVLLKAGADVNAQDNDGFTPADLAADSGHEDIAEVLQKLGGGGSGGGGSRSDLGKKLLEAARAGQDDEVRILMANGADVNAKDEYGLTPLYLATAHGHLEIVEVLLKNGADVNAVDAIGFTPLHLAAFIGHLEIAEVLLKHGADVNAQDKFGKTAFDISIGNGNEDLAEILQKLN
B8: DARPin #34 (designed binder)
chain: MRGSHHHHHHGSDLGIKLLFAASRGQDDEVRILLAAGADVNAKDFEGITPLHAAARSGHLEIVEVLLKAGADVNAKDVEGWTPLHYAASYGHLEIVEVLLKAGADVNAQDNHGATPADLAAQWGHEDIAEVLQKLGGGGSGGGGSRSDLGKKLLEAARAGQDDEVRILMANGADVNAKDEYGLTPLYLATAHGHLEIVEVLLKNGADVNAVDAIGFTPLHLAAFIGHLEIAEVLLKHGADVNAQDKFGKTAFDISIGNGNEDLAEILQKLN
B9: DARPin #36 (designed binder)
chain: MRGSHHHHHHGSDLGIKLLFAAAKGQDDEVRILLAAGADVNAKDFEGYTPLHVAAYDGHLEIVEVLLKAGADVNAKDSQGRTPLHEAAYSGHLEIVEVLLKAGADVNAQDDAGETPADLAAAWGHEDIAEVLQKLGGGGSGGGGSRSDLGAKLLVAATSGQDDEVRILLAAGADVNAKDRIGFTPLHRAAFVGHLEIVEVLLKAGADVNAQDDFGHTPADLAASLGHEDIAEVLQKLN
B10: DARPin #33 (designed binder)
chain: MRGSHHHHHHGSDLGIKLLFAASRGQDDEVRILLAAGADVNAKDFEGITPLHAAARSGHLEIVEVLLKAGADVNAKDVEGWTPLHYAASYGHLEIVEVLLKAGADVNAQDNHGATPADLAAQWGHEDIAEVLQKLGGGGSGGGGSRSDLGAKLLVAATSGQDDEVRILLAAGADVNAKDRIGFTPLHRAAFVGHLEIVEVLLKAGADVNAQDDFGHTPADLAASLGHEDIAEVLQKLN
B11: DARPin #37 (designed binder)
chain: MRGSHHHHHHGSDLGIKLLFAAAKGQDDEVRILLAAGADVNAKDFEGYTPLHVAAYDGHLEIVEVLLKAGADVNAKDSQGRTPLHEAAYSGHLEIVEVLLKAGADVNAQDDAGETPADLAAAWGHEDIAEVLQKLGGGGSGGGGSRSDLGKKLLEAARAGQDDEVRILMANGADVNAKDEYGLTPLYLATAHGHLEIVEVLLKNGADVNAVDAIGFTPLHLAAFIGHLEIAEVLLKHGADVNAQDKFGKTAFDISIGNGNEDLAEILQKLN
B12: DARPin #24 (designed binder)
chain: MRGSHHHHHHGSDLGDKLLQSDLGIKLLFAAAKSQDDEVRILLAAGADVNAKDFQSVTPLHIAAQSGHLEIVEVLLKAGADVNAKDVTGDTPLHLAAQHGHLEIVEVLLKAGADVNAQDERGWTPADLAADWGHEDIAEVLQKLGGGGSGGGGSRSDLGKKLLEAARAGQDDEVRILMANGADVNAKDEYGLTPLYLATAHGHLEIVEVLLKNGADVNAVDAIGFTPLHLAAFIGHLEIAEVLLKHGADVNAQDKFGKTAFDISIGNGNEDLAEILQKLN
B13: DARPin #38 (designed binder)
chain: MRGSHHHHHHGSDLGHKLLEAAVAGQDDEVRILLAAGADVNAKDWYGKTPLHFAAGLGHLEIVEVLLKAGADVNAKDEDGQTPLHLAAAYGHLEIVEVLLKAGADVNAQDNDGFTPADLAADSGHEDIAEVLQKLGGGGSGGGGSRSDLGIKLLQAANLGQDDEVRILLATGADVNAKDSIGQTPLHWAARRGHLEIVEVLLKAGADVNAKDEYGVTPLHLAASLGHLEIVEVLLKAGADVNAQDESGETPADLAALHGHEDIAEVLQKLN
B14: DARPin #22 (designed binder)
chain: MRGSHHHHHHGSDLGDKLLQSDLGIKLLFAAAKSQDDEVRILLAAGADVNAKDFQSVTPLHIAAQSGHLEIVEVLLKAGADVNAKDVTGDTPLHLAAQHGHLEIVEVLLKAGADVNAQDERGWTPADLAADWGHEDIAEVLQKLGGGGSGGGGSRSDLGIKLLQAANLGQDDEVRILLATGADVNAKDSIGQTPLHWAARRGHLEIVEVLLKAGADVNAKDEYGVTPLHLAASLGHLEIVEVLLKAGADVNAQDESGETPADLAALHGHEDIAEVLQKLN
B15: DARPin #29 (designed binder)
chain: MRGSHHHHHHGSDLGVKLLWAAARGQDDEVRILLAAGADVNAKDFQGITPLHIAATNGHLEIVEVLLKAGADVNAKDITGETPLHHAADSGHLEIVEVLLKAGADVNAQDKAGVTPADLAAAWGHEDIAEVLQKLGGGGSGGGGSRSDLGKKLLEAARAGQDDEVRILMANGADVNAKDEYGLTPLYLATAHGHLEIVEVLLKNGADVNAVDAIGFTPLHLAAFIGHLEIAEVLLKHGADVNAQDKFGKTAFDISIGNGNEDLAEILQKLN
B16: DARPin #42 (designed binder)
chain: MRGSHHHHHHGSDLGAKLLSDLGVKLLWAAARGQDDEVRILLAAGADVNAKDFQGITPLHIAAQSGHLEIVEVLLKAGADVNAKDVTGDTPLHLAAQHGHLVIVEVLLKAGADVNAQDERGWTPADLAADWGHEDIAEVLQKLGGGGSGGGGSRSDLGKKLLEAARAGQDDEVRILMANGADVNATDIHGHTPLHLAAAMGHLEIVEVLLKNGADVNANDWRGFTPLHLAALNGHLEIVEVLLKNGADVNATDTAGNTPLHLAAWFGHLEIVEVLLKNGADVNAQDKFGKTAFDISIDNGNEDLAEILQKLN

Target: Human HER2 expressed on tumour cells (human, UniProt P04626 23-1255)
Assay: cell-based or functional assay

Compared with B1, B2 is higher in “% activity vs. DARPin # 41, BT474 cell proliferation” value: 82.5% for the first, 100% for the second.

Going from B3 to B4, the “% activity vs. DARPin # 41, BT474 cell proliferation” value rises from 48% to 100%.

Going from B5 to B6, the “% activity vs. DARPin # 41, BT474 cell proliferation” value rises from 6.8% to 97.3%.

First: B7
Second: B8
The “% activity vs. DARPin # 41, BT474 cell proliferation” value of the first is lower: 91.2% for the first, 95.1% for the second.

First: B9
Second: B10
The “% activity vs. DARPin # 41, BT474 cell proliferation” value of the first is higher: 68.8% for the first, 65.3% for the second.

Going from B11 to B12, the “% activity vs. DARPin # 41, BT474 cell proliferation” value rises from 94.8% to 99.9%.

Going from B13 to B14, the “% activity vs. DARPin # 41, BT474 cell proliferation” value falls from 99.3% to 60.1%.

Going from B15 to B16, the “% activity vs. DARPin # 41, BT474 cell proliferation” value rises from 95% to 100%.

Compared with B1, B2 is 1.5-fold lower in “IC50 [nM], inhibition of BT474 cell proliferation (BrdU)” value (from here on “IC50 [nM], inhibition”): 5.15 nM for the first, 3.34 nM for the second.

Compared with B3, B4 is 2.1-fold lower in “IC50 [nM], inhibition” value: 3.29 nM for the first, 1.55 nM for the second.

B6 and B7 are within 1.5-fold of each other in “IC50 [nM], inhibition” value: 2.99 nM for the first, 2.76 nM for the second.

Going from B8 to B9, the “IC50 [nM], inhibition” value falls from 3.88 nM to 2.56 nM (1.5-fold).

First: B10
Second: B11
The “IC50 [nM], inhibition” value of the first is 2-fold higher: 4.47 nM for the first, 2.19 nM for the second.

Going from B12 to B13, the “IC50 [nM], inhibition” value rises from 1.97 nM to 3.3 nM (1.7-fold).

First: B14
Second: B15
The “IC50 [nM], inhibition” value of the first is 3-fold higher: 4.03 nM for the first, 1.33 nM for the second.

B16 was tested, and the “IC50 [nM], inhibition” value was 3.77 nM.
